We go through ten molecules from patent US20210380680A1 (ZLLP, published 2021).

By EC50 is commonly meant the concentration giving half of the maximal effect. A lower EC50 goes with greater potency.

The target in test [1] is T1, human Claudin 18.2 (CLDN18.2) (human, UniProt P56856-2 1-261).
T1 construct: whole, on cells; recombinantly expressed on CHO, HEK293, NCI-N87, NUGC4 or PANC-1 cells; also called CHO-CLDN18.2
As to the kind of experiment: FACS on CHO-CLDN18.2 cells.
Procedure: Binding curves were generated to rank the binding affinities of hybridoma antibodies. Briefly, a total of 1×10⁵ CHO-CLDN18.2 cells for each well were seeded in 96-well plate and washed by FACS buffer (DPBS containing 2% FBS) twice. Cells were incubated by series diluted purified hybridoma antibodies for 1 h. After primary antibody incubation, cells were washed by FACS buffer for two times. […] FlowJo software was used for analysis. Data was plotted as the logarithm of antibody concentration versus mean fluorescence signals. Nonlinear regression analysis was performed by GraphPad Prism 6 (GraphPad Software) and EC50 values were calculated.

For test [2], the target named is T2, CLDN18.2 endogenously expressed on SNU620 gastric cancer cells (UniProt P56856-2 1-261, limits assumed).
T2 construct: whole, on cells; also called SU620
The experiment in a line: FACS on SNU620 cells.

Test [3] deals with T1, human Claudin 18.2 (CLDN18.2). The experiment in a line: cell-based or functional assay.
Test [4] shares this target. The experiment in a line: cell-based or functional assay. This is another data set of the same source.
The target is the same in test [5]. The experiment in a line: cell-based or functional assay. This is another data set of the same source.
The target is the same in test [6]. The experiment in a line: cell-based or functional assay. This is another data set of the same source.
Test [7] shares this target. As to the kind of experiment: cell-based or functional assay. The source holds these as a separate data set.
The target is the same in test [8]. As to the kind of experiment: FACS on CHO-CLDN18.2 cells. The source holds these as a separate data set.
Test [9] has the same target. The experiment in a line: FACS on CHO-CLDN18.2 cells. This is another data set of the same source.
Test [10] has as its target T3, CLDN18.2 endogenously expressed on SNU601 gastric cancer cells (UniProt P56856-2 1-261).
T3 construct: whole, on cells
The experiment in a line: FACS on SNU601 cells.

Test [11] addresses T1, human Claudin 18.2 (CLDN18.2). As to the kind of experiment: FACS on CHO-18.2 cells @30 ug/ml.

Residue numbers refer to the chain shown, from its start. Read-outs that look alike come from different tables or passages of the source.

B1: 357B8F8 (mouse hybridoma antibody) (antibody, V domains shown)
VH: QVQLKESGPGLVAPSQSLSITCTVSGFSLTSYGVHWVRQPPGKGLEWLGVIWPGGNTNYNSALMSRLSISKDNSKSQVFLKMNSLQTDDTAMYYCARDRRLAMDYWGQGTSVTVSS
VL: DIVMTQSPSSLTVTAGEKVTMTCKSSQSLLNSGNQKNYLTWYQQKPGQPPKLLIYWASTRESGVPDRFTGSGSGTDFTLTISILQAEDLAVYYCQNDYSYPFTFGSGTKLEIK
notes: purified mouse IgG from hybridoma
For the molecule B1, the concentration for a half-maximal effect (EC50) in test [1] turned out to be 3.26 nM.

B2: chimeric 357B8F8 (antibody, human IgG1, kappa, V domains shown)
VH: B1 VH
VL: DIVMTQSPSSLTVTAGEKVTMTCKSSQSLLNSGNQKNYLTWYQQKPGQPPKLLIYWASTRESGVPDRFTGSGSGTDFTLTISILQAEDLAVYYCQNDYSYPFTFGSGTKLEIKR
notes: chimeric human IgG1
Take B2: in test [2], the binding result is “no binding”.

B3: Ms175D10 (antibody, V domains shown)
VH: QVQLQQPGAELVRPGASVKLSCKASGYTFTSYWINWVKQRPGQGLEWIGNIYPSDSYTNYNQKFKDKATLTVDKSSSTAYMQLSSPTSEDSAVYYCTRSWRGNSFDYWGQGTTLTVSS
VL: B1 VL with T22S, I83S, L84V
In test [1], B3 displayed an EC50 of 3.68 nM.

B4: 413H9F8-cp2 (antibody, V domains shown)
VH: DVQLVESGGGLVQPGGSLRLSCAASGFTFSSFGMHWVRQAPGKGLEWVAYISSGSSPIYYVDKLKGRFTISRDNAKNSLYLQMNSLRAEDTAVYYCARAGYAVRNALDYWGQGTLVTVSS
VL: EIVMTQSPPTLSLSPGERVTLSCKSSQSLLNVGNQKNYLAWYQQKPGQAPRLLIYGASTRESGIPARFSGSGSGTDFTLTISSLQPEDFAVYYCQNDLFYPLTFGGGTKVEIK
notes: humanized IgG; constant regions not specified
Take B4: in test [3], the “% ADCC @ 6.67 nM, NCI-N87-CLDN18.2, FcR-TANK” value was 13.2% and the “ADCC EC50, NCI-N87-CLDN18.2, FcR-TANK” value worked out at 0.24 nM. Also, in test [4], the “% specific cytotoxicity @ 6.67 nM, NUGC4-CLDN18.2, PBMC” value turned out to be 32% and the “ADCC EC50, NUGC4-CLDN18.2, PBMC” value turned out to be 5.3 nM. In test [5], the “ADCC EC50, CHO-CLDN18.2, FcR-TANK” value came to 8 pM. In test [6], the “ADCC EC50, NUGC4-CLDN18.2, PBMC” value was 0.0492 nM. In addition, in test [7], the “CDC EC50, human serum, CHO-CLDN18.2” value is 1.13 nM. Besides, the EC50 in test [8] amounted to 1.99 nM.

B5: 413H9F8-cp2-V2-DL (antibody, V domains shown)
VH: B4 VH
VL: B4 VL
For the molecule B5, the “ADCC EC50, CHO-CLDN18.2, FcR-TANK” value in [5] was found to be 1 pM. Besides, the “ADCC EC50, NUGC4-CLDN18.2, PBMC” value in test [6] turned out to be 0.0146 nM.

B6: 413H9F8-cp2-MG-DL (antibody, V domains shown)
VH: B4 VH
VL: B4 VL
Consider B6, for which the “ADCC EC50, CHO-CLDN18.2, FcR-TANK” value in [5] turned out to be 2.4 pM. For the same molecule, the “ADCC EC50, NUGC4-CLDN18.2, PBMC” value in test [6] turned out to be 0.0175 nM.

B7: 364D1A7 (mouse hybridoma antibody) (antibody, V domains shown)
VH: DVQLVESGGGLVQPGGSRKLSCAASGFTFSSFGMHWVRQAPEKGLEWVAYISSGSGSIYYADTVKGRFTLSRDNPKNTLFLQMTSLRSEDTAIYYCATSYYYGNALEYWGQGTSVTVSS
VL: DVVLTQSPSSLTVTEGEKVSMSCKSSQSLFNSGNQKNYLTWYQQKPGQTPTLLIYWASTRKSGVPDRFTGSGSGTDFTLTINTVQAEDLAVYYCQNVYSYPLTFGAGTKLDLK
notes: as for B1
In the case of B7, it took 5.22 nM to reach a half-maximal effect in test [1] (EC50).

B8: 413H9F8 (mouse hybridoma antibody) (antibody, V domains shown)
VH: DVQLVESGGGSVQPGGSRRLSCAASGFTFSSFGMHWVRQAPEKGLEWVAYISSGSSPIYYVDKLKGRFTVSRDNPKNTLFLQMTSLRSEDTAMYYCARAGYAVRNALDYWGQGTSITVSS
VL: DIVMTQSPSSLSVSVGEKVTLSCKSSQSLLNSGNQKNYLAWYQQKTGQPPKLLIYGASTRESGVPDRFIGSGSGTDFTLTISSVQAEDLAVYFCQNDLFYPLTFGAGTKLELK
notes: as for B1
In the case of B8, the EC50 in [1] is 8.3 nM.

B9: chimeric 282A12F3 (xi282A12F3) (antibody, human IgG1, kappa, V domains shown)
VH: QVQLKESGPVLVQPSQTLSLTCTVAGFSLTSYNVYWVRQPPGKGLEWMGVIWNTGATRYNSTLKSRLSISKDTSKSQVFLKMNSLQTEDTATYYCARDSAMPAIPFAYWGQGTLVTVSS
VL: DIVMTQSPSSLAVSAGETVTINCKSSQSLFGSVRQKNYLAWYQQKPGQSPKLLIYLASTRESGVPDRFIGSGSGTDFTLTISSVQAEDLAKYYCQQYYDIPWTFGGGTKLELKR
notes: chimeric human IgG1
Take B9: the binding result in test [9] is recorded as “binds”.

B10: 282A12F3 (rat hybridoma antibody) (antibody, V domains shown)
VH: B9 VH
VL: DIVMTQSPSSLAVSAGETVTINCKSSQSLFGSVRQKNYLAWYQQKPGQSPKLLIYLASTRESGVPDRFIGSGSGTDFTLTISSVQAEDLAKYYCQQYYDIPWTFGGGTKLELK
notes: purified rat IgG from hybridoma
With B10, the binding result in test [10] and in [11] was “binds” each time.
